# Experimental data taken from patent US10660972B2, “Methods for coupling targeting peptides onto recombinant lysosomal enzymes for improved treatments of lysosomal storage diseases” (AMICUS THERAPEUTICS, INC., priority 2011, dated 2020).
# Where “and” joins values, the source holds several entries; their conditions need not be identical. Equal entries are not always repeated.
# Experiments:
# IGF-2/CI-MPR = IGF-2/CI-MPR (Homo sapiens, UniProt P11717); settings: cited from earlier work; for Kd: ligand affinity for IGF-2/CI-MPR, read-out: Binding Affinity (Apparent Kd; nM)
# Pompe disease = settings: 40 mg/kg every other week; cited from earlier work
# insulin receptor = insulin receptor (Homo sapiens, UniProt P06213); settings: compared to the IGF-2/CI-MPR; cited from earlier work
# IGF-1 receptor = IGF-1 receptor (Homo sapiens, UniProt P08069); settings: compared to the IGF-2/CI-MPR; cited from earlier work
# [1] = human, in vivo; cited from earlier work
# [2] = tested on: serum IGF binding proteins (IGFBPs); assay: Binding to serum IGF binding proteins, inferred from uptake in serum-containing medium; assay type: cell-based; settings: inferred from internalization in medium with 10% FBS
# Description: To assess the functional effects of IGF2 peptide for the cellular uptake of exogenous lysosomal enzymes, the internalization of IGF2-conjugated rbGAA (vIGF2-rhGAA) was evaluated in L6 rat skeletal muscle myoblasts. Briefly, L6 myoblasts were expanded in T-75 flasks to confluence in DMEM medium containing 10% fetal bovine serum (FBS) at 37 C and a 5% CO2 environment. The cells were harvested via trypsin/EDTA and plated in 6-well tissue culture plates at a cell density of 3×10^5 cells per well and incubated in DMEM/10% […] medium. Two hours prior to the addition of lysosomal enzymes, the spent DMEM 10% FBS medium was replaced with 2.5 ml uptake medium (Ham's F-12/10% FBS/2 mM PIPES, pH 6.7). Unconjugated rhGAA and vIGF2-rhGAA were diluted to 0.5 mg/ml with 50 mM sodium phosphate, pH 6.5/100 mM NaCl/0.05%>Polysorbate-80 and sterilized through a 0.2 μm filter spin device (Costar). Unconjugated rhGAA was added to individual wells at final protein concentrations of 10-200 nM while vIGF2-rhGAA was added at 2-25 nM. To ensure that all wells had the same volume and correct protein concentration, 50 mM sodium phosphate, pH 6.5/100 mM NaCl/0.05% Polysorbate-80 buffer was added so that the total volume of enzyme and buffer was 0.2 ml for each sample.
# [3] = Solubility and stability of protein preparations in acidic buffer; assay type: physicochemical
# Description: (§1) The high-mannose type N-glycans on rhGAA is problematic because it is believed that these carbohydrates cause the protein to be rapidly cleared from the circulation via macrophage and splenic mannose receptors. […] Deglycosylation of rhGAA can be performed after the enzyme is modified with S-Hynic and purified (via size exclusion chromatography or dialysis to remove excess crosslinker). This strategy allows for complete deglycosylation of rhGAA over 1-5 days using EndoF or EndoH without affecting enzyme activity. The deglycosylated hydrazide-modified rhGAA is then conjugated to PEG4-benzaldehyde-modified IGF-2 peptides. Alternatively, rhGAA deglycosylation can be performed concurrently during the conjugation of PEG4-benzaldehyde-modified IGF-2 peptide to hydrazide-modified rhGAA using high concentrations of EndoF or EndoH. Deglycosylated, IGF2 peptide-conjugated rhGAA is then purified by gel filtration chromatography or dialysis to remove excess […] IGF-2 peptides and stored in acidic pH buffer (50 mM sodium phosphate, pH 6.2/100 mM NaCl/0.05% Polysorbate-80). The ideal method to remove high-mannose N-glycans from yeast-derived rhGAA would be to co-express EndoH with the lysosomal enzyme for deglycoylation in vivo prior to protein purification of rhGAA. […]
# [4] = tested on: lysosomal enzyme activity (rhGAA, I2S); assay: Enzyme activity of lysosomal enzyme after conjugation or deglycosylation; assay type: biochemical, human
# Description: as §1, with “Polysorbate-80).” for “Polysorbate-80). The ideal method to remove high-mannose N-glycans from yeast-derived rhGAA would be to co-express EndoH with the lysosomal enzyme for deglycoylation in vivo prior to protein purification of rhGAA.”
# To assess the functional effects of IGF2 peptide for the cellular uptake of exogenous lysosomal enzymes, the internalization of IGF2-conjugated rbGAA (vIGF2-rhGAA) was evaluated in L6 rat skeletal muscle myoblasts. […]
# IGF-2/CI-MPR, sequence (P11717 41-2491): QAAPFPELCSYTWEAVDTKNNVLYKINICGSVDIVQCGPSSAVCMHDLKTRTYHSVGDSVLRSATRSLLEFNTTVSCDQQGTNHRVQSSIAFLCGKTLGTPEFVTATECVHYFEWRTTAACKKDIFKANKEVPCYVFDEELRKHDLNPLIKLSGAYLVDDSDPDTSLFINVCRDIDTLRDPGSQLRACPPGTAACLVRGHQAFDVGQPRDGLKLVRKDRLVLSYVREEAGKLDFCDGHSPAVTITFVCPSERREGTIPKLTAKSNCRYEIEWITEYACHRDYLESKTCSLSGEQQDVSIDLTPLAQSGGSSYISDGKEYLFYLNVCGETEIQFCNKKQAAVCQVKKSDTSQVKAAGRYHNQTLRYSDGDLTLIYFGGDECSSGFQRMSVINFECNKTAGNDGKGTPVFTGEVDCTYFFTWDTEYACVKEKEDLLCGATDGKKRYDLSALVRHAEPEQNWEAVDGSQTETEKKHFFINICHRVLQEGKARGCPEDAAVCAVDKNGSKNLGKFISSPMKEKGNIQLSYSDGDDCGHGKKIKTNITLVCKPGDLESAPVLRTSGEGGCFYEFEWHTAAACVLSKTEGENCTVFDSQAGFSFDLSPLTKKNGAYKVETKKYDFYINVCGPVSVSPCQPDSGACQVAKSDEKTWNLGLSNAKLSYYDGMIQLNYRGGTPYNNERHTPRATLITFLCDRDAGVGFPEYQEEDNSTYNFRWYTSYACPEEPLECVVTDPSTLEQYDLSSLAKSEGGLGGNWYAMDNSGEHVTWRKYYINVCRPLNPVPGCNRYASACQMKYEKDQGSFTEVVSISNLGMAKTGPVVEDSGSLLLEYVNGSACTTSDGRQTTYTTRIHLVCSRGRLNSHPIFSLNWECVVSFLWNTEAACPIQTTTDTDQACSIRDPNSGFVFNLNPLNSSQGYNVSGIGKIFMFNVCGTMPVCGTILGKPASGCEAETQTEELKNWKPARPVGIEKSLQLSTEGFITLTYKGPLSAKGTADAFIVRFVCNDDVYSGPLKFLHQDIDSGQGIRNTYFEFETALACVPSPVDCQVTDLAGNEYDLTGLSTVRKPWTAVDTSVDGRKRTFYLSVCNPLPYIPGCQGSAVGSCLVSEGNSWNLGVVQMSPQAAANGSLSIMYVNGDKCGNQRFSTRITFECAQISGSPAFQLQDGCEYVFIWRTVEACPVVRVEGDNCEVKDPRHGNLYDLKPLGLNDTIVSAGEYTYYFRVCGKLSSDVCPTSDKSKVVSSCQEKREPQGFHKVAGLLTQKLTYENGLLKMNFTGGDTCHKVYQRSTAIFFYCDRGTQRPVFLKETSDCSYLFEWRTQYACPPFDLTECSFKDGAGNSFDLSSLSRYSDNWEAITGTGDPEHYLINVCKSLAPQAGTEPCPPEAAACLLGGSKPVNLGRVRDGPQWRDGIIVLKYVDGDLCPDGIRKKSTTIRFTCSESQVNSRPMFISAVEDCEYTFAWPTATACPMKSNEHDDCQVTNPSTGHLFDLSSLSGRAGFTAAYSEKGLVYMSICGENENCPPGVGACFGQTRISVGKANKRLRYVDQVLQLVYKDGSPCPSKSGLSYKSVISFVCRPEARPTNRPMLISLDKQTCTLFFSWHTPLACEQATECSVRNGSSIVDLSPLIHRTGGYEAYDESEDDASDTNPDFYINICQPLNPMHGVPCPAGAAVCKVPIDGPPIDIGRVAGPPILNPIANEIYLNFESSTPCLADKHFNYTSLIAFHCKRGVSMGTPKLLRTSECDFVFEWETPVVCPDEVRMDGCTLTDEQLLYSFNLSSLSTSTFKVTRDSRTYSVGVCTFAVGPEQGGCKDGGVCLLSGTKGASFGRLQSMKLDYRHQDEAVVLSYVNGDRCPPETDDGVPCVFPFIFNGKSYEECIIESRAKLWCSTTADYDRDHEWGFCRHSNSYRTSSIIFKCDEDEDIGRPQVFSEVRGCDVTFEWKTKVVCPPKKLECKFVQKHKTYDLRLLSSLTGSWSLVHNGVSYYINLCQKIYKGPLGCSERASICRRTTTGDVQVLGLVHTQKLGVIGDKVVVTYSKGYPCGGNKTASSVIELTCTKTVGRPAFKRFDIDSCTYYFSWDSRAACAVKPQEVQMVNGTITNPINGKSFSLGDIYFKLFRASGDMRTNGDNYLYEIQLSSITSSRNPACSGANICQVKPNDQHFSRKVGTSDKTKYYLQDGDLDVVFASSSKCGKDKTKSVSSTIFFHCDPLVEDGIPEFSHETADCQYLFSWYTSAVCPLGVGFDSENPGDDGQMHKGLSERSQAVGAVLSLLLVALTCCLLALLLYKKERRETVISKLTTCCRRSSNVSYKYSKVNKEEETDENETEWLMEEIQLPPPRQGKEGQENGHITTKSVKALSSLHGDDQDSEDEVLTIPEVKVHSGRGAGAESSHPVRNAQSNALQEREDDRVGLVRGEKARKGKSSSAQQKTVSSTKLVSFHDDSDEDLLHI
molecule,measurement,setting,value
"O=C[C@@H](O)[C@@H](O)[C@H](O)[C@H](O)COP(=O)(O)O [free M6P, mannose 6-phosphate]",Kd,IGF-2/CI-MPR,7000 nM
"Myozyme: recombinant human acid α-glucosidase, rhGAA; Genzyme Corp.",clinical effectiveness in Pompe disease,Pompe disease,only moderately effective
WT hIGF-2: wildtype human insulin-like growth factor 2 peptide,Kd,IGF-2/CI-MPR,0.03 to 0.2 nM
same,fold higher affinity for IGF-2/CI-MPR than mono-M6P N-glycan,IGF-2/CI-MPR; relative to mono-M6P N-glycan,"approximately 230,000 fold"
same,fold lower affinity for insulin receptor compared to IGF-2/CI-MPR,insulin receptor,~100 fold
same,fold lower affinity for IGF-1 receptor compared to IGF-2/CI-MPR,IGF-1 receptor,~230 fold
same,safety in clinical trials,[1],shown to be safe
[Leu27] hIGF-2: human IGF-2 with substitution of leucine for tyrosine at position 27,Kd,IGF-2/CI-MPR,0.05 nM and 0.06 nM
"[del(1-4), Arg6, Leu27, Arg65] IGF-2 [variant IGF2 peptide]",binding affinity to serum IGF binding proteins (IGFBPs),[2],low binding affinity
same,stability of conjugated peptide in acidic buffers,[3]; acidic buffers required for maintaining lysosomal enzyme activities,stable and maintains proper protein structure
rhGAA: Recombinant human acid α-glucosidase,effect of chemical conjugation of variant IGF2 peptide on enzyme activity,[4]; after conjugation of variant IGF2 peptide (data not shown),did not affect enzyme activity
same,enzyme activity after removal of N-glycans,"[4]; deglycosylated with EndoF or EndoH, native conditions (data not shown)",completely active
same,solubility after removal of N-glycans,[3]; deglycosylated with EndoF or EndoH (data not shown),remain soluble
